Measurements as given in publication PMC2386467.

target: Rap2.6 (Arabidopsis thaliana) (UniProt Q7G1L2); experiment: EMSA; details: EMSA: 2.5 ug protein, 20 ng DNA, 0.5x TBE, 20 min room temperature, 6-7% native PAGE, anti-His blot; affinity assay: 2 ug protein, 100 pmol F5, 0.5x TBE, 10 min
Sequence (Q7G1L2 whole entry): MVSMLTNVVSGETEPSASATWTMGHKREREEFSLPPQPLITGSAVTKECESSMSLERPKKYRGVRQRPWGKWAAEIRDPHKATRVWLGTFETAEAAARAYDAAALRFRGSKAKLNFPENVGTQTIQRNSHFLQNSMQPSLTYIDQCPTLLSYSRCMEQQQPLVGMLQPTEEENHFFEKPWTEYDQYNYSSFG

Sequence	binding
TCTCCGTCATCGAACTTTGATCACAAATACAAAAAACAAAACAAAAAGTGTAACTATAGTCAAAGAAATTAGAAAATTTCGTAAAAGATTAATGTAACAATACCCAGAAACTCTGC (double strand) [F3]	no binding
AAACCATGGCATGCATAAGAGTCTTGAGCATAATAATGAAACCTGGATTTCCCGGAATAAACAATACATGGAATGTGGGATTCTCAGCTTGAATTTCCATCATCTCCGTCATC (double strand) [F2]	no binding
AAACCATGGCATGCATAAGAGTCTTGAGCATAATAATGAAACCTGGATTTCCCGGA (double strand) [F1]	no binding
CTCCGGTCACGCGATTCAACTTATATCTTCTCTCAGAACTGTCAACACTTGAAAGGAGAAGATCGAGAGAATTAATGAGACAACAGAGAAACCACTAAAAATCAAAACTTTGCAAAATAAGTGAAGAAGCCTTTTAAAGTAAACCAAGTGAAGAGAG (double strand) [F5]	no binding
